According to US20240287161A1 (NATIONAL UNIVERSITY CORPORATION TOTTORI UNIVERSITY, published 2024):

T1: HCoV-NL63 trimeric S protein (amino acids 22-1293) with T4 foldon, histidine tag and strep-tag (HCoV-NL63, UniProt Q6Q1S2 23-1293)
T1 sequence: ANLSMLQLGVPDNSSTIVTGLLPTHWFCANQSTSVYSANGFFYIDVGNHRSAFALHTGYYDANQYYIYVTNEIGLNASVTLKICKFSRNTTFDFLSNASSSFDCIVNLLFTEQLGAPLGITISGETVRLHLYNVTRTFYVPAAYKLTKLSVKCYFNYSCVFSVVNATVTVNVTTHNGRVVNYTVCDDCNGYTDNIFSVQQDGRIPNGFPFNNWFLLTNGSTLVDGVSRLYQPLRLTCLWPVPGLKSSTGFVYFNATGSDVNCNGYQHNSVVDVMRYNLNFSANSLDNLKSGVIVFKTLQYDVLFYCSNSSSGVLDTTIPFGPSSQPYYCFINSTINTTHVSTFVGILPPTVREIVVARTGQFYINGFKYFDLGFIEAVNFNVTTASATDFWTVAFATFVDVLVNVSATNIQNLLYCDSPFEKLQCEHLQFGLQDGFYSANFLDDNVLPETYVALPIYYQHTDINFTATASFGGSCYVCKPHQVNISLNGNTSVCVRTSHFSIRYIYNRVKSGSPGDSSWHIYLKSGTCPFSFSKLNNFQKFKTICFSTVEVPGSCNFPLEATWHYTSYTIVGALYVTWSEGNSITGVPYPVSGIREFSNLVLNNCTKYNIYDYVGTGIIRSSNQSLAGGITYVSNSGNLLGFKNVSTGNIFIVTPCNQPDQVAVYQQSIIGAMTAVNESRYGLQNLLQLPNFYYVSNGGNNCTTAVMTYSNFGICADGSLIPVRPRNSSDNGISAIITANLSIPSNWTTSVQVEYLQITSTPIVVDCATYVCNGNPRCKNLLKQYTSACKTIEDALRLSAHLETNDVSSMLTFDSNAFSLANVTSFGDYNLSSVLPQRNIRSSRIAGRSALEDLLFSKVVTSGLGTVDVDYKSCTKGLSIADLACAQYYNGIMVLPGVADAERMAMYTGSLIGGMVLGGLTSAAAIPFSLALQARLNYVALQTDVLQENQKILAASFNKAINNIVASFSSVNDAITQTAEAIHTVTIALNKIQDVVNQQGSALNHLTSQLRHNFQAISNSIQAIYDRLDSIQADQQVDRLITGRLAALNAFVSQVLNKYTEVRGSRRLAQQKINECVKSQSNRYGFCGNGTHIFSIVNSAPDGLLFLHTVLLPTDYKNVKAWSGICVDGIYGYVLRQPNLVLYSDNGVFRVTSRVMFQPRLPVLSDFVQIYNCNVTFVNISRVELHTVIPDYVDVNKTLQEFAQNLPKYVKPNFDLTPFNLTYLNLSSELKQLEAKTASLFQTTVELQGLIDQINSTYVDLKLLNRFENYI

T2: HCoV-OC43 trimeric S protein (amino acids 12-1299) with T4 foldon, histidine tag and strep-tag (HCoV-OC43, UniProt P36334 12-1291)
T2 chain: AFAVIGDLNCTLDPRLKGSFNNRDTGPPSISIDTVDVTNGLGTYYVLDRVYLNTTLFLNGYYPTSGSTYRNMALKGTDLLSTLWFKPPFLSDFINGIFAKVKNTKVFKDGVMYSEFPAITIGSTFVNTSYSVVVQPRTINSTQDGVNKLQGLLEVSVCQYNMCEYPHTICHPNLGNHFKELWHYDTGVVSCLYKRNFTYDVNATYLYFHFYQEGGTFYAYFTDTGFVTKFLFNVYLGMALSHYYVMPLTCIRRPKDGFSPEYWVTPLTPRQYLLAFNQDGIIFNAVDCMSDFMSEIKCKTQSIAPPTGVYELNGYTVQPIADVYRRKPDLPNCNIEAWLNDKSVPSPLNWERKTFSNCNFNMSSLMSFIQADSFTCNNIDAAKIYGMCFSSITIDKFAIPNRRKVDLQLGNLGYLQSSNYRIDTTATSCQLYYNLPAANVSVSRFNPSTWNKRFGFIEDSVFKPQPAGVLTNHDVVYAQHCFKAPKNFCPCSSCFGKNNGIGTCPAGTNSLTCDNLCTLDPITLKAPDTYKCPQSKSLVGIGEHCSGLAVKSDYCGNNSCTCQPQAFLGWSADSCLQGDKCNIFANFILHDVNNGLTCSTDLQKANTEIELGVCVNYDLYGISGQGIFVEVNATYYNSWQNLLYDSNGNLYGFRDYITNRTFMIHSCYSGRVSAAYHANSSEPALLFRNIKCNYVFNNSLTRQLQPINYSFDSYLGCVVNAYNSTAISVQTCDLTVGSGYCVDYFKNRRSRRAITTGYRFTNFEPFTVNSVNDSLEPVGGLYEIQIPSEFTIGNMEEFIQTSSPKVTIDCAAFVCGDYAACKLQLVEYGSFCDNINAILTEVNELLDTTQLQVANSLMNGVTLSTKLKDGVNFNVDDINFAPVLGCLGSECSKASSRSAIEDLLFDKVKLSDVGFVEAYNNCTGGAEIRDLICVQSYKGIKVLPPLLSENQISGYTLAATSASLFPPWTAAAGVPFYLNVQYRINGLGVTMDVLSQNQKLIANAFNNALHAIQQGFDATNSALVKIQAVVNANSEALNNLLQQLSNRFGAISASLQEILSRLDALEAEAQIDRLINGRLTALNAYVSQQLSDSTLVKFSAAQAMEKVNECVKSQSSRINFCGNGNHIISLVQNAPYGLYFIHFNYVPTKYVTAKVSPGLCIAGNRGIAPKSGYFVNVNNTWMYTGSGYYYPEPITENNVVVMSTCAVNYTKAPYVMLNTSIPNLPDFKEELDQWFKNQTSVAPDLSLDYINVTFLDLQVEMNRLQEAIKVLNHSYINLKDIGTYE

B1: NT-108 (recombinant human IgG1/kappa antibody) (antibody, V domains shown)
VH: EVQLQQSGPGLVKPSQTLSLTCSISGDSVSSNSAAWNWIRQSPSRGLEWLGRTYYRSKWYNDYAGTVKSRIAINPDTSKNQFSLHLNSVTPEDTAVYFCARVISVAGYAFDIWGQGTMVTVSS
VL: EIVLTQSPGTLSLSPGERATLSCRASQSVSSTFLAWYQQKPGQAPRLLIYGASYMATGIPDRFSGSGSGTDFTLTISRLEPEDFAVYYCQQYGSSLTFGGGTKLEIK
B2: NT-193 (recombinant human IgG1/kappa antibody) (antibody, V domains shown)
VH: EVQLQQWGAGLLKPSETLSLTCAVYGGSFSGYYWSWIRQPPGKGLEWIGEINHSGSTNYNPSLKSRVTISVDTSKNQFSLKLSSVTAADTAVYYCARGWDLDYYYGMDVWGQGTTVTVSS
VL: DIRMTQSPSAMSASVGDRVTVTCRASQGIGNYLAWFQLKPGKVPKRLIYAASSLQSGVPARFSGGGSGTEFTLTISSLQPEDFATYYCLQHGFLPWTFGQGTKLEIK

Experiments:
[1] = target: T1, HCoV-NL63 trimeric S protein (amino …); assay: ELISA on coated S-trimeric antigen, anti-human IgG-HRP [Human IgG1, NT-108]
[2] = target: T2, HCoV-OC43 trimeric S protein (amino …); assay: as above
[3] = target: T1, HCoV-NL63 trimeric S protein (amino …); assay: ELISA on coated S-trimeric antigen, anti-human IgG-HRP [Human IgG1, NT-193]
[4] = target: T2, HCoV-OC43 trimeric S protein (amino …); assay: as above

| Binder | binding result [1] | binding result [2] | binding result [3] | binding result [4] |
| --- | --- | --- | --- | --- |
| B1 | no binding (tested: 1000 ng/ml) | no binding (tested: 1000 ng/ml) | – | – |
| B2 | – | – | no binding (tested: 1000 ng/ml) | no binding (tested: 1000 ng/ml) |
